Where two headings read alike, the source gives them in different places. Ends that are not written are not given here. Oregon Green 488 maleimide = Oregon Green 488 maleimide fluorescent label attached to the N-terminal cysteine
B1: NEDD4L WW4 domain (domain or fragment)
chain: GPLPPGWEERIHLDGRTFYIDHNSKITQWEDPRL
B2: NEDD4L WW1 domain (domain or fragment)
chain: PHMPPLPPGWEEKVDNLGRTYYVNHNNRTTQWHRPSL
B3: NEDD4L WW2 domain (domain or fragment)
chain: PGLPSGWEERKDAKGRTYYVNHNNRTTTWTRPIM
B4: NEDD4L WW3 domain (domain or fragment)
chain: KVTQSFLPPGWEMRIAPNGRPFFIDHNTKTTTWEDPRLKFPVHMRSK

Columns and labels:
Test in all cases: FP
NEDD4L WW4 domain = biological target: B1
NEDD4L WW1 domain = biological target: B2
NEDD4L WW3 domain [1] = biological target: B4
NEDD4L WW2 domain = biological target: B3
PPxYc [2] = biological target: PPxYc
PPxYc [3] = biological target: PPxYc; remark: listed apart in the source
Target sequence in this assay (Q96PU5 other isoform, or with tags, fused parts or gaps): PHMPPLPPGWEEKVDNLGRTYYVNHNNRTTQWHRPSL

NEDD4L WW3 domain [4] = biological target: B4; remark: listed apart in the source
PPxYc [5] = biological target: PPxYc; remark: listed apart in the source
Target sequence in this assay (Q96PU5 385-418): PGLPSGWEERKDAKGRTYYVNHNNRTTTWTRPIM

PPxYc [6] = biological target: PPxYc; remark: listed apart in the source

Chain of NEDD4L WW1 domain (chain, as listed by the source): as the sequence (Q96PU5 other isoform, or with tags, fused parts or gaps) above
Chain of NEDD4L WW2 domain (Q96PU5 385-418): as the sequence (Q96PU5 385-418) above

Binder: C(Oregon Green 488 maleimide)LMRYQHPPEYGAARP [AMOT PPxY3 peptide (residues 278-292), Oregon Green 488-labelled]
- Kd (NEDD4L WW4 domain): > 400 µM
- Kd (NEDD4L WW1 domain): > 400 µM
- Kd (NEDD4L WW3 domain [1]): 100 µM
- Kd (NEDD4L WW2 domain): 280 µM

Binder: C(Oregon Green 488 maleimide)MEHRGPPPEYPFKGM [AMOT PPxY2 peptide (residues 233-247), Oregon Green 488-labelled]
- Kd (NEDD4L WW4 domain): 210 µM
- Kd (NEDD4L WW1 domain): 49 µM
- Kd (NEDD4L WW3 domain [1]): 28 µM
- Kd (NEDD4L WW2 domain): 30 µM

Binder: B1
- Kd (PPxYc [2]): > 400 µM

Binder: B2
- Kd (PPxYc [3]): > 400 µM

Binder: C(Oregon Green 488 maleimide)MEHRGPLPEYPFKGM [AMOT PPxY2 P239L mutant peptide]
- Kd (NEDD4L WW3 domain [4]): 78 µM

Binder: B3
- Kd (PPxYc [5]): > 800 µM

Binder: C(Oregon Green 488 maleimide)MQNNEEPPTYEEAKV [AMOT PPxY1 L106P mutant peptide]
- Kd (NEDD4L WW3 domain [4]): 6.7 µM

Binder: C(Oregon Green 488 maleimide)MQNNEELPTYEEAKV [AMOT PPxY1 peptide (residues 100-114), Oregon Green 488-labelled]
- Kd (NEDD4L WW3 domain [4]): 6.3 µM
- Kd (NEDD4L WW4 domain): 60 µM
- Kd (NEDD4L WW1 domain): 180 µM
- Kd (NEDD4L WW2 domain): 34 µM

Binder: B4
- Kd (PPxYc [6]): > 250 µM

Reference: publication PMC8368996 (2021)
